B1: Complement factor H-related protein 4 (Homo sapiens), Q92496-3 (parent)
chain: MLLLINVILTLWVSCANGQEVKPCDFPEIQHGGLYYKSLRRLYFPAAAGQSYSYYCDQNFVTPSGSYWDYIHCTQDGWSPTVPCLRTCSKSDIEIENGFISESSSIYILNKEIQYKCKPGYATADGNSSGSITCLQNGWSAQPICIKFCDMPVFENSRAKSNGMRFKLHDTLDYECYDGYEISYGNTTGSIVCGEDGWSHFPTCYNSSEKCGPPPPISNGDTTSFLLKVYVPQSRVEYQCQSYYELQGSNYVTCSNGEWSEPPRCIHPCIITEENMNKNNIQLKGKSDIKYYAKTGDTIEFMCKLGYNANTSVLSFQAVCREGIVEYPRCE

Tests used:
co3_human C3, P01024 = variants of: B1; details: with co3_human C3, P01024
Chain of co3_human C3, P01024 (P01024 whole entry): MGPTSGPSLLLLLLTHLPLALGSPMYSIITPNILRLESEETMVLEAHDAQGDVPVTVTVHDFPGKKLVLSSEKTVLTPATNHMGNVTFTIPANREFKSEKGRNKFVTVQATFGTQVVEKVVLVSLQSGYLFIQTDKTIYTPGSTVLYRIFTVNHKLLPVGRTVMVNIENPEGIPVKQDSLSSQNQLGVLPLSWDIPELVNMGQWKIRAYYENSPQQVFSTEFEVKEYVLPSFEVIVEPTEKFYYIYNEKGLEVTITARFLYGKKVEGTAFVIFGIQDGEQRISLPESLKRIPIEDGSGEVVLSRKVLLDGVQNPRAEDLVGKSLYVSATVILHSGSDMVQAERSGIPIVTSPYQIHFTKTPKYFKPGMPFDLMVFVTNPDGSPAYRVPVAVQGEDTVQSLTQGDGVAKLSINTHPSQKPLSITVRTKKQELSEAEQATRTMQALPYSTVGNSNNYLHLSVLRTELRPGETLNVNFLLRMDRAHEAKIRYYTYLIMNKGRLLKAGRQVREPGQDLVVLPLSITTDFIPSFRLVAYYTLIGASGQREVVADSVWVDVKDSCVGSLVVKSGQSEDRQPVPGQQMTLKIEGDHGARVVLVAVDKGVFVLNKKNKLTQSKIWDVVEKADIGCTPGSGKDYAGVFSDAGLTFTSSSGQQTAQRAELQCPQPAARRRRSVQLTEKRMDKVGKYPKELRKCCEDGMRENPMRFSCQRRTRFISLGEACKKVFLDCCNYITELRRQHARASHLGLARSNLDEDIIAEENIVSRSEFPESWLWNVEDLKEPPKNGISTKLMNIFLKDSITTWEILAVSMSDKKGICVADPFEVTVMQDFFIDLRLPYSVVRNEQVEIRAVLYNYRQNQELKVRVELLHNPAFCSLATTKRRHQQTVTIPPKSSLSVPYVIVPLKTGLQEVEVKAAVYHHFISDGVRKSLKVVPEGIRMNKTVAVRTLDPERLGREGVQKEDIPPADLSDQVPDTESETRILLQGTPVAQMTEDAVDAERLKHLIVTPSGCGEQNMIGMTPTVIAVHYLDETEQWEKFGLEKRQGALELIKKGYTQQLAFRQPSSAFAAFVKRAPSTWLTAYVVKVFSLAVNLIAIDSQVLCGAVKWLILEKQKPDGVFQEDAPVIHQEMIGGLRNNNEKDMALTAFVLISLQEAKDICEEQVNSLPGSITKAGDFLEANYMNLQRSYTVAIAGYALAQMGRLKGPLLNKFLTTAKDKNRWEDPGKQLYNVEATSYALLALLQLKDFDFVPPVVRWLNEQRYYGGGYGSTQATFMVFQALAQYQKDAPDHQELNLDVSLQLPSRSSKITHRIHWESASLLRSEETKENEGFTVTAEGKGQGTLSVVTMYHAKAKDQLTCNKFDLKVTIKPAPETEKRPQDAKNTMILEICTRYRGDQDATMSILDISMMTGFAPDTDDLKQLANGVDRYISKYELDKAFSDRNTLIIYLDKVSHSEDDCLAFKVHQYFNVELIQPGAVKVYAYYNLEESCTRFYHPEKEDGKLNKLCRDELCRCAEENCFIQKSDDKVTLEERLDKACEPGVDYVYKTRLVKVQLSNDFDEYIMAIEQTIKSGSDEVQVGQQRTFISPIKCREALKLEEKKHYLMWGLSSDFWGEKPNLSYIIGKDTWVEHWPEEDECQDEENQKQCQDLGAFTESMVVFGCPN

cfab_human CFB, P00751 = variants of: B1; details: with cfab_human CFB
Chain of cfab_human CFB, P00751 (P00751 whole entry): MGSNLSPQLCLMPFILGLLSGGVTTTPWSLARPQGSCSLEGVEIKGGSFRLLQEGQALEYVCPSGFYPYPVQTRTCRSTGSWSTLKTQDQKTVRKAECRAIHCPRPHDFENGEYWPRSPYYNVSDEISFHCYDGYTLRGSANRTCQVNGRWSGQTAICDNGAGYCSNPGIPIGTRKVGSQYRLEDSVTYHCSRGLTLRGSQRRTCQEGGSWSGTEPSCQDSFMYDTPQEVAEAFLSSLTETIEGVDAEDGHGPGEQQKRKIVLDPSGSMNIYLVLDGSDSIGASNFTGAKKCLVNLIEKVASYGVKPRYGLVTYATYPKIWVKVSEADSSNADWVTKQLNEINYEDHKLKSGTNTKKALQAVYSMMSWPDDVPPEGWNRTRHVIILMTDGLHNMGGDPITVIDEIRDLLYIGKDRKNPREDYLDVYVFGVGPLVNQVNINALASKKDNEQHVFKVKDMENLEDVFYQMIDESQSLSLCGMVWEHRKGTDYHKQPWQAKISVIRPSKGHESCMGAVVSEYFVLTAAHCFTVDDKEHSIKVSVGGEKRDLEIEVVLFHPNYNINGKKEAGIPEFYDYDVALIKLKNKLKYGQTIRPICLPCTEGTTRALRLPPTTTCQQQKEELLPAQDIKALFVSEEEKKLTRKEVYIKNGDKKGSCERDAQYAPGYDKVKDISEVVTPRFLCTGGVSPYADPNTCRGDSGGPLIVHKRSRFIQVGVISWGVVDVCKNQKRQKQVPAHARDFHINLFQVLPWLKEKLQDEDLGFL

prop_human CFP, P27918 = variants of: B1; details: with prop_human CFP
Chain of prop_human CFP, P27918 (P27918 whole entry): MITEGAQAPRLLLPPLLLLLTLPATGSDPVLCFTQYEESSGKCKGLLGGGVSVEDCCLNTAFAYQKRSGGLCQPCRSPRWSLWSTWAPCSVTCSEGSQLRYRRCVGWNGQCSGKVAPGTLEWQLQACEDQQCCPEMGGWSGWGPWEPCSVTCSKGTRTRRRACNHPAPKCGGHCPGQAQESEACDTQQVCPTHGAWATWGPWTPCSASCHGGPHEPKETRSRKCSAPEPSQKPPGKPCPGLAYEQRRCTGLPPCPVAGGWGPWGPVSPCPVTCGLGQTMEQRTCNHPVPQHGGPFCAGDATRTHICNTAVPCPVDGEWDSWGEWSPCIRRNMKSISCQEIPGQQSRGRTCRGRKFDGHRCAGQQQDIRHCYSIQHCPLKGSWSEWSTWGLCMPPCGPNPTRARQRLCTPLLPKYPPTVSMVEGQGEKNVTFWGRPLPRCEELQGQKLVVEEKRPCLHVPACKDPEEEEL

| effect of a mutation on the interaction (co3_human C3, P01024) | effect of a mutation on the interaction (cfab_human CFB, P00751) | effect of a mutation on the interaction (prop_human CFP, P27918) | Variant |
| --- | --- | --- | --- |
| decreasing interaction strength | decreasing interaction strength | decreasing interaction strength | MLLLINVILTLWVSCANGQEVKPCDFPEIQHGGLYYKSLRRLYFPAAAGQSYSYYCDQNFVTPSGSYWDYIHCTQDGWSPTVPCLRTCSKSDIEIENGFISESSSIYILNKEIQYKCKPGYATADGNSSGSITCLQNGWSAQPICIKFCDMPVFENSRAKSNGMRFKLHDTLDYECYDGYEISYGNTTGSIVCGEDGWSHFPTCYNSSEKCGPPPPISNGGTTSFLLKVYVPQSRVEYQCQSYYELQGSNYVTCSNGEWSEPPRCIHPCIITEENMNKNNIQLKGKSDIKYYAKTGDTIEFMCKLGYNANTSVLSFQAVCREGIVEYPRCE [D221G] |
| disrupting interaction strength | disrupting interaction strength | disrupting interaction strength | MLLLINVILTLWVSCANGQEVKPCDFPEIQHGGLYYKSLRRLYFPAAAGQSYSYYCDQNFVTPSGSYWDYIHCTQDGWSPTVPCLRTCSKSDIEIENGFISESSSIYILNKEIQYKCKPGYATADGNSSGSITCLQNGWSAQPICIKFCDMPVFENSRAKSNGMRFKLHDTLDYECYDGYEISYGNTTGSIVCGEDGWSHFPTCYNSSEKCGPPPPISNGGTTSFLLKVYVPQSRVEYQCQSYYELQGSNYVTCSNGEWSEPPRCIHPCIITEENMNKNNIQLKGKSDIAYYAKTGDTIEFMCKLGYNANTSVLSFQAVCREGIVEYPRCE [D221G;K290A] |

Source: IntAct's records for PubMed 22518841
